From FireProtDB

Settings: whole UniProt chain shown
[1] = Hirudo medicinalis, pH 5.4, 25 °C, GdnHCl, CD, KH2PO4-NaOH 10 mM, reversible: yes
[2] = Homo sapiens, pH 2.2, 25 °C, GdnHCl, CD, Sodium cacodylate 50 mM, NaCl 50 mM
[3] = Homo sapiens, pH 8, 25 °C, GdnHCl, CD, Tris-HCl 20 mM
[4] = Escherichia coli, pH 6, 19 °C, GdnHCl, CD, sodium phosphate 10 mM, sodium sulphate 10 mM, reversible: yes
[5] = Escherichia coli, pH 6, 25 °C, GdnHCl, CD, sodium phosphate 10 mM, sodium sulphate 10 mM, reversible: yes
[6] = Escherichia coli, pH 6, 25 °C, Thermal, DSC, Sodium phosphate 10 mM, Na2SO4 10 mM, reversible: yes
[7] = Escherichia coli, pH 6, Thermal, DSC, Sodium phosphate 10 mM, Na2SO4 10 mM, reversible: yes
[8] = Escherichia coli (strain K12), pH 8.3, Thermal, DSC, borate 40 mM

B1: Regulatory protein cro wild type, P03040 (protein)
chain: MEQRITLKDYAMRFGQTKTAKDLGVYQSAINKAIHAGRKIFLTINADGSVYAEEVKPFPSNKKTTA
Tm (Escherichia phage lambda, pH 3, Thermal, CD, Potassium phosphate 10 mM, KCl 0.1 M, reversible: yes): 40 °C | Tm (Escherichia phage lambda, pH 7, Thermal, CD, Potassium phosphate 10 mM, KCl 0.1 M, reversible: yes): 39.5 °C

B2: Eglin C wild type, P01051 (protein)
chain: TEFGSELKSFPEVVGKTVDQAREYFTLHYPQYDVYFLPEGSPVTLDLRYNRVRVFYNPGTNVVNHVPHVG
denaturant m value [1]: 3.87 kcal/mol/M | unfolding free energy [1]: 6.5 kcal/mol

B3: Alpha-lactalbumin wild type, P00709 (protein)
chain: MRFFVPLFLVGILFPAILAKQFTKCELSQLLKDIDGYGGIALPELICTMFHTSGYDTQAIVENNESTEYGLFQISNKLWCKSSQVPQSRNICDISCDKFLDDDITDDIMCAKKILDIKGIDYWLAHKALCTEKLEQWLCEKL
denaturant m value [2]: 0.95 kcal/mol/M | denaturant midpoint (higher = more stable) [2]: 4.67 M | unfolding free energy [2]: 4.45 kcal/mol | heat capacity change of unfolding (Homo sapiens, pH 7, Thermal, CD, Sodium cacodylate 50 mM, NaCl 50 mM, reversible: yes): 1.1 kcal/mol/K | unfolding free energy (Homo sapiens, pH 7.3, 25 °C, GdnHCl, CD, Tris-HCl 0.05 M, reversible: yes): 6.8 kcal/mol | denaturant m value [3]: 0.85 kcal/mol/M | denaturant midpoint (higher = more stable) [3]: 3.09 M | unfolding free energy [3]: 2.63 kcal/mol

B4: Peptidyl-prolyl cis-trans isomerase B wild type, P23869 (protein)
chain: MVTFHTNHGDIVIKTFDDKAPETVKNFLDYCREGFYNNTIFHRVINGFMIQGGGFEPGMKQKATKEPIKNEANNGLKNTRGTLAMARTQAPHSATAQFFINVVDNDFLNFSGESLQGWGYCVFAEVVDGMDVVDKIKGVATGRSGMHQDVPKEDVIIESVTVSE
unfolding free energy (Escherichia coli (strain K12), pH 8, 15 °C, NaCl, Fluorescence, Tris-HCl 0.1 M, NaCl 2.0 M, reversible: yes): 2.51 kcal/mol

B5: Regulatory protein rop wild type, P03051 (protein)
chain: MTKQEKTALNMARFIRSQTLTLLEKLNELDADEQADICESLHDHADELYRSCLARFGDDGENL
denaturant m value [4]: 2.75 kcal/mol/M | denaturant midpoint (higher = more stable) [4]: 3.3 M | unfolding free energy [4]: 16 kcal/mol | denaturant m value [5]: 3.06 kcal/mol/M | denaturant midpoint (higher = more stable) [5]: 3.23 M | unfolding free energy [5]: 16.9 kcal/mol | heat capacity change of unfolding [6]: 2.46 kcal/mol/K | unfolding free energy [6]: 17.1 kcal/mol | Tm [7]: 71 °C | heat capacity change of unfolding [7]: 2.46 kcal/mol/K | unfolding enthalpy (calorimetric) [7]: 139 kcal/mol | unfolding enthalpy (van 't Hoff) [7]: 130 kcal/mol | Tm (Escherichia coli, pH 7, Thermal, CD, Sodium phosphate 100 mM, NaCl 200 mM): 64 °C

B6: PTS system mannose-specific EIIAB component wild type, P69797 (protein)
chain: MTIAIVIGTHGWAAEQLLKTAEMLLGEQENVGWIDFVPGENAETLIEKYNAQLAKLDTTKGVLFLVDTWGGSPFNAASRIVVDKEHYEVIAGVNIPMLVETLMARDDDPSFDELVALAVETGREGVKALKAKPVEKAAPAPAAAAPKAAPTPAKPMGPNDYMVIGLARIDDRLIHGQVATRWTKETNVSRIIVVSDEVAADTVRKTLLTQVAPPGVTAHVVDVAKMIRVYNNPKYAGERVMLLFTNPTDVERLVEGGVKITSVNVGGMAFRQGKTQVNNAVSVDEKDIEAFKKLNARGIELEVRKVSTDPKLKMMDLISKIDK
unfolding free energy (Escherichia coli (strain K12), pH 7.4, 22 °C, GdnHCl, CD, Sodium phosphate 20 mM, reversible: yes): 6.5 kcal/mol | unfolding enthalpy (van 't Hoff) (Escherichia coli (strain K12), pH 7.4, Thermal, CD, Sodium phosphate 20 mM, reversible: yes): 135 kcal/mol

B7: Ornithine carbamoyltransferase subunit I wild type, P04391 (protein)
chain: MSGFYHKHFLKLLDFTPAELNSLLQLAAKLKADKKSGKEEAKLTGKNIALIFEKDSTRTRCSFEVAAYDQGARVTYLGPSGSQIGHKESIKDTARVLGRMYDGIQYRGYGQEIVETLAEYASVPVWNGLTNEFHPTQLLADLLTMQEHLPGKAFNEMTLVYAGDARNNMGNSMLEAAALTGLDLRLVAPQACWPEAALVTECRALAQQNGGNITLTEDVAKGVEGADFIYTDVWVSMGEAKEKWAERIALLREYQVNSKMMQLTGNPEVKFLHCLPAFHDDQTTLGKKMAEEFGLHGGMEVTDEVFESAASIVFDQAENRMHTIKAVMVATLSK
Tm [8]: 62.5 °C | unfolding enthalpy (calorimetric) [8]: 600 kcal/mol

B8: Ovalbumin wild type, P01012 (protein)
chain: MGSIGAASMEFCFDVFKELKVHHANENIFYCPIAIMSALAMVYLGAKDSTRTQINKVVRFDKLPGFGDSIEAQCGTSVNVHSSLRDILNQITKPNDVYSFSLASRLYAEERYPILPEYLQCVKELYRGGLEPINFQTAADQARELINSWVESQTNGIIRNVLQPSSVDSQTAMVLVNAIVFKGLWEKAFKDEDTQAMPFRVTEQESKPVQMMYQIGLFRVASMASEKMKILELPFASGTMSMLVLLPDEVSGLEQLESIINFEKLTEWTSSNVMEERKIKVYLPRMKMEEKYNLTSVLMAMGITDVFSSSANLSGISSAESLKISQAVHAAHAEINEAGREVVGSAEAGVDAASVSEEFRADHPFLFCIKHIATNAVLFFGRCVSP
Tm (Gallus gallus, pH 6, Thermal, DSC, Na-phosphate): 72.4 °C | Tm (Gallus gallus, pH 7, Thermal, DSC, Phosphate, transition: 3, reversible: No): 82.5 °C | Tm (Gallus gallus, pH 7, Thermal, DSC, Unknown, transition: 3, reversible: No): 78.4 °C
